In the supplement of paper PMC12783771:
± gives the standard deviation of the averaged measurements.

B1: library; numbered along this chain (parent)
chain: MNIQIGELAKRTACPVVTIRFYEQEGLLPPPGRSRGNFRLYGEEHVERLQFIRHCRSLDMPLSDVRTLLSYRKRPDQDCGEVNMLLDEHIRQVESRIGALLELKHHLVELREACSGARPAQSCGILQGLSDCVCDTRGTTAHPSD

Tests used:
[1] = variants of: B1; assay: sfGFP reporter fluorescence (15 h) (µM FITC); higher = higher leak; conditions: library round: Round 1; ligand: none
Procedure: (§1)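 Cell-free biosensing: 1 µL Echo-assembled CFE reactions with linear PbrR variant templates (5 nM) and pPbrR-sfGFP reporter, with 1 µM Pb, 30 µM Zn or no ligand; endpoint sfGFP fluorescence after 15 h at 30 °C calibrated as µM FITC. Round 1 ML-predicted PbrR mutants; 3 biological replicates.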

[2] = variants of: B1; assay: sfGFP reporter fluorescence (15 h) (µM FITC); higher = stronger transcriptional activation; conditions: library round: Round 1
Procedure: as §1

[3] = variants of: B1; assay: sfGFP reporter fluorescence (15 h) (µM FITC); higher = higher leak; conditions: library round: Round 0; ligand: none
Procedure: (§2)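 Cell-free (BL21 Star DE3 extract, PANOx-SP) biosensing: 1 µL Echo-assembled reactions with linear PbrR variant templates (5 nM) and pPbrR-sfGFP reporter, with 1 µM Pb (lead chloride), 30 µM Zn (zinc acetate) or no ligand; endpoint sfGFP fluorescence after 15 h at 30 °C, calibrated as µM FITC. Round 0 library (alanine scan, site saturation, combinatorial) of PbrR from Cupriavidus metallidurans; 2 biological replicates.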

[4] = variants of: B1; assay: sfGFP reporter fluorescence (15 h) (µM FITC); higher = stronger transcriptional activation; conditions: library round: Round 0
Procedure: as §2

Variant | sfGFP reporter fluorescence [1] | sfGFP reporter fluorescence ([2]; ligand: 1 µM Pb) | sfGFP reporter fluorescence ([2]; ligand: 30 µM Zn) | sfGFP reporter fluorescence [3] | sfGFP reporter fluorescence ([4]; ligand: 1 µM Pb) | sfGFP reporter fluorescence ([4]; ligand: 30 µM Zn)
D131A D135E | 0.06499 ± 0.00042 | 0.0805 ± 0.0086 | 0.571 ± 0.06 |  |  | 
D131A D135P | 0.0689 ± 0.0013 | 0.119 ± 0.0078 | 0.654 ± 0.017 |  |  | 
S115G D131C | 0.0572 ± 0.0013 | 0.0619 ± 0.0016 | 0.0992 ± 0.0037 |  |  | 
R33C K104V | 0.06255 ± 0.00056 | 0.0618 ± 0.0011 | 0.0646 ± 0.0015 |  |  | 
unchanged | 0.0626 ± 0.0021 | 0.0729 ± 0.0052 | 0.487 ± 0.22 | 0.0588 ± 0.0029 | 0.0826 ± 0.03 | 0.722 ± 0.087
N83T K104V L107I | 0.0623 ± 0.0016 | 0.0753 ± 0.0068 | 0.112 ± 0.0052 |  |  | 
M60L D64K L107C E109L G128I D131T | 2.84 ± 0.3 | 2.23 ± 0.17 | 2.37 ± 0.23 |  |  | 
D135R P143A | 0.0577 ± 0.0043 | 0.0707 ± 0.0053 | 0.317 ± 0.04 |  |  | 
L129M P143T | 0.0636 ± 0.0011 | 0.0636 ± 0.0025 | 0.07306 ± 0.00056 |  |  | 
D64G N83S D135A | 0.0656 ± 0.00097 | 0.0915 ± 0.002 | 0.292 ± 0.0096 |  |  | 
D64K R111L | 0.06487 ± 0.00064 | 0.154 ± 0.013 | 0.898 ± 0.071 |  |  | 
K104V D135A | 0.0696 ± 0.0011 | 0.123 ± 0.0063 | 0.678 ± 0.073 |  |  | 
N83T D135A | 0.06316 ± 0.00056 | 0.0768 ± 0.0015 | 0.152 ± 0.0032 |  |  | 
N83T D135V | 0.0628 ± 0.0024 | 0.0727 ± 0.0031 | 0.184 ± 0.011 |  |  | 
M60L D64K G128T D131C | 0.754 ± 0.023 | 1.8 ± 0.19 | 2.25 ± 0.44 |  |  | 
D64K E112F | 0.06988 ± 0.00056 | 0.145 ± 0.0047 | 0.802 ± 0.055 |  |  | 
P61N D64T E112I | 0.0771 ± 0.0039 | 0.153 ± 0.018 | 0.942 ± 0.03 |  |  | 
P61N R96A | 0.0665 ± 0.00092 | 0.0876 ± 0.0059 | 0.238 ± 0.024 |  |  | 
N83S E94D K104A | 0.05986 ± 0.00042 | 0.0734 ± 0.0052 | 0.422 ± 0.014 |  |  | 
P61N D64K D135A | 0.123 ± 0.0068 | 0.376 ± 0.011 | 1.33 ± 0.12 |  |  | 
E94F K104V G128H | 0.0634 ± 0.002 | 0.0647 ± 0.0031 | 0.0833 ± 0.0084 |  |  | 
P61L D64K | 0.06157 ± 0.00037 | 0.0655 ± 0.0074 | 0.06389 ± 0.00056 |  |  | 

Variant | sfGFP reporter fluorescence [1] | sfGFP reporter fluorescence ([2]; ligand: 1 µM Pb) | sfGFP reporter fluorescence ([2]; ligand: 30 µM Zn) | sfGFP reporter fluorescence [3] | sfGFP reporter fluorescence ([4]; ligand: 1 µM Pb) | sfGFP reporter fluorescence ([4]; ligand: 30 µM Zn)
P61N D135A | 0.0764 ± 0.0016 | 0.152 ± 0.014 | 0.791 ± 0.096 |  |  | 
P61N D135R | 0.0732 ± 0.00085 | 0.164 ± 0.0087 | 0.708 ± 0.075 |  |  | 
G128I D135P | 0.074 ± 0.0013 | 0.172 ± 0.013 | 0.904 ± 0.084 |  |  | 
D131A D135P P143W | 0.0718 ± 0.0029 | 0.122 ± 0.0042 | 0.497 ± 0.081 |  |  | 
P61D D64K | 0.168 ± 0.0064 | 0.454 ± 0.038 | 1.44 ± 0.17 |  |  | 
N83T E112A | 0.0608 ± 0.0013 | 0.0855 ± 0.0018 | 0.194 ± 0.022 |  |  | 
N83T E112F | 0.0601 ± 0.0026 | 0.0667 ± 0.0032 | 0.0853 ± 0.0022 |  |  | 
N83T E112H | 0.0643 ± 0.0027 | 0.0795 ± 0.0037 | 0.112 ± 0.0026 |  |  | 
D64T D131C | 0.143 ± 0.0074 | 0.359 ± 0.033 | 1.51 ± 0.07 |  |  | 
L58F K104V | 0.0645 ± 0.00097 | 0.0808 ± 0.00092 | 0.182 ± 0.024 |  |  | 
I125L D131C | 0.06 ± 0.0018 | 0.0617 ± 0.0015 | 0.0593 ± 0.0014 |  |  | 
N83T D131C | 0.0627 ± 0.0013 | 0.0738 ± 0.0019 | 0.0784 ± 0.0036 |  |  | 
N83T D131S | 0.0602 ± 0.0017 | 0.0836 ± 0.0031 | 0.146 ± 0.016 |  |  | 
N83T D131A | 0.0649 ± 0.0029 | 0.0917 ± 0.0025 | 0.169 ± 0.016 |  |  | 
N83T L107C G128M | 0.432 ± 0.012 | 1.31 ± 0.1 | 2.39 ± 0.53 |  |  | 
L107C G128I P143A | 0.52 ± 0.062 | 1.09 ± 0.32 | 2.25 ± 0.092 |  |  | 
P61D D64K E112H | 0.156 ± 0.0048 | 0.345 ± 0.087 | 1.36 ± 0.14 |  |  | 
I3G K104V | 0.0618 ± 0.0017 | 0.06841 ± 0.00056 | 0.0899 ± 0.0043 |  |  | 
I97S G128I | 0.0694 ± 0.0013 | 0.136 ± 0.023 | 0.89 ± 0.023 |  |  | 
N83T L107E | 0.0668 ± 0.00076 | 0.0635 ± 0.0022 | 0.0662 ± 0.0024 |  |  | 
N83T L107F | 0.06096 ± 0.00056 | 0.059 ± 0.002 | 0.0604 ± 0.0011 |  |  | 
